The values below come from patent US20160031996A1 (CSL, published 2016).

For assay [1], the target named is human IL-3Rα E51Q/P88T double mutant, full length (human) (UniProt P26951). Nature of the assay: flow cytometry, MFI normalised to WT.
For assay [2], the target named is human IL-3Rα E51Q/S59A/P88T triple mutant, full length (human) (UniProt P26951). Nature of the assay: flow cytometry, MFI normalised to WT. (In flow cytometry, cells or beads pass a laser one at a time.)
The target in assay [3] is human IL-3Rα E51Q/S59A double mutant, full length (human) (UniProt P26951). The assay can be described thus: flow cytometry, MFI normalised to WT.
Assay [4] addresses human IL-3Rα S59A/P88T double mutant, full length (human) (UniProt P26951). The assay can be described thus: flow cytometry, MFI normalised to WT.
Assay [5] addresses T1, full length human IL-3Rα, wild type (human, UniProt P26951 19-378).
T1 construct: expressed in 293F cells; also called WT
T1 sequence: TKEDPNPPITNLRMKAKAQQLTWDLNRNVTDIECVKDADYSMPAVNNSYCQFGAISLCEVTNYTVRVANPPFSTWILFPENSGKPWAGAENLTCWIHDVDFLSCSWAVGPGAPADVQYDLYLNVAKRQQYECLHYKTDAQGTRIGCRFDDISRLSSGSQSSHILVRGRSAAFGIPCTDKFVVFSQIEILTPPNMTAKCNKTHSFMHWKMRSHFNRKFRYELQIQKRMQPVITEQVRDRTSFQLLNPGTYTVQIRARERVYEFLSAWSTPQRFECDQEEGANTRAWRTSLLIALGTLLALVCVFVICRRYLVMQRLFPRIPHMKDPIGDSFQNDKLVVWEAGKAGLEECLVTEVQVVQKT
The assay can be described thus: flow cytometry, MFI normalised to WT (reference, set as 100%). As for the experimental part:
Median fluorescence intensity (MFI) of each antibody was determined for WT IL-3Rα and for each IL-3Rα mutant. The MFI of WT IL-3Rα staining for each antibody was set as 100% then the MFI of each mutant was normalized to a percent of WT staining.

In the next assay the target is T2, human IL-3 (human, UniProt P08700 20-152).
T2 sequence (looked up): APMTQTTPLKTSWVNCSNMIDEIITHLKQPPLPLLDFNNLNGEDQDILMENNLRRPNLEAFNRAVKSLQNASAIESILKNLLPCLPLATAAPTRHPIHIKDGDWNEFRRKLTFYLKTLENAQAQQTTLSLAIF
The assay can be described thus: flow cytometry, 293F cells expressing mutant IL-3Rα and CD131. As for the experimental part:
STAT5 activity was measured by flow cytometry after intracellular staining with a phosphoSTAT5 antibody (pSTAT5).

Turning to “anti-human IL-3Rα monoclonal antibody 9F5”, the MFI as percent of WT staining was 70.1 % of WT MFI in assay [1]; 32.7 % of WT MFI in assay [2]; 87 % of WT MFI in assay [3]; 95.6 % of WT MFI in assay [4]; 100 % of WT MFI in assay [5].

B1: human IL-3Rα E51Q/S59A double mutant, full length (receptor)
chain: TKEDPNPPITNLRMKAKAQQLTWDLNRNVTDIQCVKDADYAMPAVNNSYCQFGAISLCEVTNYTVRVANPPFSTWILFPENSGKPWAGAENLTCWIHDVDFLSCSWAVGPGAPADVQYDLYLNVAKRQQYECLHYKTDAQGTRIGCRFDDISRLSSGSQSSHILVRGRSAAFGIPCTDKFVVFSQIEILTPPNMTAKCNKTHSFMHWKMRSHFNRKFRYELQIQKRMQPVITEQVRDRTSFQLLNPGTYTVQIRARERVYEFLSAWSTPQRFECDQEEGANTRAWRTSLLIALGTLLALVCVFVICRRYLVMQRLFPRIPHMKDPIGDSFQNDKLVVWEAGKAGLEECLVTEVQVVQKT
Take B1: the binding result with human IL-3 is “binds”.

B2: human IL-3Rα E51Q/P88T double mutant, full length (receptor)
chain: TKEDPNPPITNLRMKAKAQQLTWDLNRNVTDIQCVKDADYSMPAVNNSYCQFGAISLCEVTNYTVRVANTPFSTWILFPENSGKPWAGAENLTCWIHDVDFLSCSWAVGPGAPADVQYDLYLNVAKRQQYECLHYKTDAQGTRIGCRFDDISRLSSGSQSSHILVRGRSAAFGIPCTDKFVVFSQIEILTPPNMTAKCNKTHSFMHWKMRSHFNRKFRYELQIQKRMQPVITEQVRDRTSFQLLNPGTYTVQIRARERVYEFLSAWSTPQRFECDQEEGANTRAWRTSLLIALGTLLALVCVFVICRRYLVMQRLFPRIPHMKDPIGDSFQNDKLVVWEAGKAGLEECLVTEVQVVQKT
Consider B2, for which the binding result in the assay with human IL-3 is listed as “binds”.

B3: human IL-3Rα E51Q/S59A/P88T triple mutant, full length (receptor)
chain: TKEDPNPPITNLRMKAKAQQLTWDLNRNVTDIQCVKDADYAMPAVNNSYCQFGAISLCEVTNYTVRVANTPFSTWILFPENSGKPWAGAENLTCWIHDVDFLSCSWAVGPGAPADVQYDLYLNVAKRQQYECLHYKTDAQGTRIGCRFDDISRLSSGSQSSHILVRGRSAAFGIPCTDKFVVFSQIEILTPPNMTAKCNKTHSFMHWKMRSHFNRKFRYELQIQKRMQPVITEQVRDRTSFQLLNPGTYTVQIRARERVYEFLSAWSTPQRFECDQEEGANTRAWRTSLLIALGTLLALVCVFVICRRYLVMQRLFPRIPHMKDPIGDSFQNDKLVVWEAGKAGLEECLVTEVQVVQKT
For B3, the binding result with human IL-3 was “binds”.

B4: human IL-3Rα S59A/P88T double mutant, full length (receptor)
chain: TKEDPNPPITNLRMKAKAQQLTWDLNRNVTDIECVKDADYAMPAVNNSYCQFGAISLCEVTNYTVRVANTPFSTWILFPENSGKPWAGAENLTCWIHDVDFLSCSWAVGPGAPADVQYDLYLNVAKRQQYECLHYKTDAQGTRIGCRFDDISRLSSGSQSSHILVRGRSAAFGIPCTDKFVVFSQIEILTPPNMTAKCNKTHSFMHWKMRSHFNRKFRYELQIQKRMQPVITEQVRDRTSFQLLNPGTYTVQIRARERVYEFLSAWSTPQRFECDQEEGANTRAWRTSLLIALGTLLALVCVFVICRRYLVMQRLFPRIPHMKDPIGDSFQNDKLVVWEAGKAGLEECLVTEVQVVQKT
In the case of B4, the binding result in the assay with human IL-3 is “binds”.
